The text below walks through data of patent US20250277057A1 (OKLAHOMA MEDICAL RESEARCH FOUNDATION, published 2025).

The labels stand for the following.
B1: R2-30F7 (Fab, V domains shown)
VH: EVQLVESGGGLVQPGGSLRLSCAASGFTFSFYYLNWVRQAPGKGLEWVGDIRLKSNNYEKHYAESVKGRFTISRDDSKSITYLQMNSLRAEDTAVYYCAREGDYFDYWGQGTTVTVSS
VL: DIQLTQSPSSLSASVGDRVTITCRASESVDSFGATFMHWYQQKPGKAPKLLIYLASRLPSGVPSRFSGSGSGTDFTLTISSLQPEDFATYYCVQNNEDPYTFGQGTKLEIK
notes: Combinatorial mutant Fab of HAPC-14; also called combinatorial mutant No. 11
B2: R2-9C1 (Fab, V domains shown)
VH: EVQLVESGGGLVQPGGSLRLSCAASGFTFSFYYLNWVRQAPGKGLEWVGDIRLKKNNYEKHYAESVKGRFTISRDDSKSITYLQMNSLRAEDTAVYYCAREGDYFDYWGQGTTVTVSS
VL: DIQLTQSPSSLSASVGDRVTITCRASESVDSFGATFMHWYQQKPGKAPKLLIYLASWLESGVPSRFSGSGSGTDFTLTISSLQPEDFATYYCVQNNEDPYTFGQGTKLEIK
notes: Combinatorial mutant Fab of HAPC-14; also called combinatorial mutant No. 16
B3: R2-23E10 (Fab, V domains shown)
VH: EVQLVESGGGLVQPGGSLRLSCAASGFTFSFYYLNWVRQAPGKGLEWVGDIRLKSNNYEKHYAESVKGRFTISRDDSKSITYLQMNSLRAEDTAVYYCAREGDYFDYWGQGTTVTVSS
VL: DIQLTQSPSSLSASVGDRVTITCRASESVDSFGATFMHWYQQKPGKAPKLLIYLASWLGSGVPSRFSGSGSGTDFTLTISSLQPEDFATYYCQQNNEDPYTFGQGTKLEIK
notes: Combinatorial mutant Fab of HAPC-14; also called combinatorial mutant No. 12
B4: R2-24H1 (Fab, V domains shown)
VH: EVQLVESGGGLVQPGGSLRLSCAASGFTFSFYYLNWVRQAPGKGLEWVGDIRLKSNNYEKHYAESVKGRFTISRDDSKSITYLQMNSLRAEDTAVYYCAREGDYFDYWGQGTTVTVSS
VL: DIQLTQSPSSLSASVGDRVTITCRASESVDSFGATFMHWYQQKPGKAPKLLIYLASRLGSGVPSRFSGSGSGTDFTLTISSLQPEDFATYYCVQNNEDPYTFGQGTKLEIK
notes: Combinatorial mutant Fab of HAPC-14; also called combinatorial mutant No. 8
B5: R2-32E6 (Fab, V domains shown)
VH: EVQLVESGGGLVQPGGSLRLSCAASGFTFSFYYLNWVRQAPGKGLEWVGDIRLKKNNYEKHYAESVKGRFTISRDDSKSITYLQMNSLRAEDTAVYYCAREGDYFDYWGQGTTVTVSS
VL: DIQLTQSPSSLSASVGDRVTITCRASESVDSFGATFMHWYQQKPGKAPKLLIYLASWLGSGVPSRFSGSGSGTDFTLTISSLQPEDFATYYCVQNNEDPYTFGQGTKLEIK
notes: Combinatorial mutant Fab of HAPC-14; Printed CDRs are the same as those of R2-24F3; also called combinatorial mutant No. 14
B6: R2-27G7 (Fab, V domains shown)
VH: EVQLVESGGGLVQPGGSLRLSCAASGFTFSFYYLNWVRQAPGKGLEWVGDIRLKKNNYEKHYAESVKGRFTISRDDSKSITYLQMNSLRAEDTAVYYCAREGDYFDYWGQGTTVTVSS
VL: DIQLTQSPSSLSASVGDRVTITCRASESVDSFGATFMHWYQQKPGKAPKLLIYLASRLGSGVPSRFSGSGSGTDFTLTISSLQPEDFATYYCQQNNEDPYTFGQGTKLEIK
notes: Combinatorial mutant Fab of HAPC-14; also called combinatorial mutant No. 6
B7: R2-23H2 (Fab, V domains shown)
VH: EVQLVESGGGLVQPGGSLRLSCAASGFTFSFYYLNWVRQAPGKGLEWVGDIRLKKNNYEKHYAESVKGRFTISRDDSKSITYLQMNSLRAEDTAVYYCAREGDYFDYWGQGTTVTVSS
VL: DIQLTQSPSSLSASVGDRVTITCRASESVDSFGATFMHWYQQKPGKAPKLLIYLASWLGSGVPSRFSGSGSGTDFTLTISSLQPEDFATYYCQQNNEDPYTFGQGTKLEIK
notes: Combinatorial mutant Fab of HAPC-14; also called combinatorial mutant No. 2
B8: R2-26E4 (Fab, V domains shown)
VH: EVQLVESGGGLVQPGGSLRLSCAASGFTFSFYYLNWVRQAPGKGLEWVGDIRLKKNNYEKHYAESVKGRFTISRDDSKSITYLQMNSLRAEDTAVYYCAREGDYFDYWGQGTTVTVSS
VL: DIQLTQSPSSLSASVGDRVTITCRASESVDSFGATFMHWYQQKPGKAPKLLIYLASRLGSGVPSRFSGSGSGTDFTLTISSLQPEDFATYYCVQNNEDPYTFGQGTKLEIK
notes: Combinatorial mutant Fab of HAPC-14; also called combinatorial mutant No. 4
B9: R2-29D9 (Fab, V domains shown)
VH: EVQLVESGGGLVQPGGSLRLSCAASGFTFSFYYLNWVRQAPGKGLEWVGDIRLKKNNYEKHYAESVKGRFTISRDDSKSITYLQMNSLRAEDTAVYYCAREGDTFDYWGQGTTVTVSS
VL: DIQLTQSPSSLSASVGDRVTITCRASESVDSFGATFMHWYQQKPGKAPKLLIYLASRLPSGVPSRFSGSGSGTDFTLTISSLQPEDFATYYCVQNNEDPYTFGQGTKLEIK
notes: Combinatorial mutant Fab of HAPC-14; also called combinatorial mutant No. 7
B10: R2-25G5 (Fab, V domains shown)
VH: EVQLVESGGGLVQPGGSLRLSCAASGFTFSFYYLNWVRQAPGKGLEWVGDIRLKKNNYEKHYAESVKGRFTISRDDSKSITYLQMNSLRAEDTAVYYCAREGDYFDYWGQGTTVTVSS
VL: DIQLTQSPSSLSASVGDRVTITCRASESVDSFGATFMHWYQQKPGKAPKLLIYLASWLPSGVPSRFSGSGSGTDFTLTISSLQPEDFATYYCVQNNEDPYTFGQGTKLEIK
notes: Combinatorial mutant Fab of HAPC-14; also called combinatorial mutant No. 3
B11: R2-22B6 (Fab, V domains shown)
VH: EVQLVESGGGLVQPGGSLRLSCAASGFTFSFYYLNWVRQAPGKGLEWVGDIRLKSNNYEKHYAESVKGRFTISRDDSKSITYLQMNSLRAEDTAVYYCAREGDYFDYWGQGTTVTVSS
VL: DIQLTQSPSSLSASVGDRVTITCRASESVDSFGATFMHWYQQKPGKAPKLLIYLASRLGSGVPSRFSGSGSGTDFTLTISSLQPEDFATYYCQQNNEDPYTFGQGTKLEIK
notes: Combinatorial mutant Fab of HAPC-14; also called combinatorial mutant No. 15
B12: R2-24D4 (Fab, V domains shown)
VH: EVQLVESGGGLVQPGGSLRLSCAASGFTFSFYYLNWVRQAPGKGLEWVGDIRLKKNNYEKHYAESVKGRFTISRDDSKSITYLQMNSLRAEDTAVYYCAREGDTFDYWGQGTTVTVSS
VL: DIQLTQSPSSLSASVGDRVTITCRASESVDSFGATFMHWYQQKPGKAPKLLIYLASWLPSGVPSRFSGSGSGTDFTLTISSLQPEDFATYYCQQNNEDPYTFGQGTKLEIK
notes: Combinatorial mutant Fab of HAPC-14; also called combinatorial mutant No. 10
B13: R2-22A10 (Fab, V domains shown)
VH: EVQLVESGGGLVQPGGSLRLSCAASGFTFSFYYLNWVRQAPGKGLEWVGDIRLKKNNYEKHYAESVKGRFTISRDDSKSITYLQMNSLRAEDTAVYYCAREGDYFDYWGQGTTVTVSS
VL: DIQLTQSPSSLSASVGDRVTITCRASESVDSFGATFMHWYQQKPGKAPKLLIYLASRLESGVPSRFSGSGSGTDFTLTISSLQPEDFATYYCVQNNEDPYTFGQGTKLEIK
notes: Combinatorial mutant Fab of HAPC-14; also called combinatorial mutant No. 9
B14: R2-25B7 (Fab, V domains shown)
VH: EVQLVESGGGLVQPGGSLRLSCAASGFTFSFYYLNWVRQAPGKGLEWVGDIRLKSNNYEKHYAESVKGRFTISRDDSKSITYLQMNSLRAEDTAVYYCAREGDYFDYWGQGTTVTVSS
VL: DIQLTQSPSSLSASVGDRVTITCRASESVDSFGATFMHWYQQKPGKAPKLLIYLASWLPSGVPSRFSGSGSGTDFTLTISSLQPEDFATYYCVQNNEDPYTFGQGTKLEIK
notes: Combinatorial mutant Fab of HAPC-14; also called combinatorial mutant No. 5
B15: R2-24F3 (Fab, V domains shown)
VH: EVQLVESGGGLVQPGGSLRLSCAASGFTFSFYYLNWVRQAPGKGLEWVGDIRLKKNNYEKHYAESVKGRFTISRDDSKSITYLQMNSLRAEDTAVYYCAREGDYFDYWGQGTTVTVSS
VL: DIQLTQSPSSLSASVGDRVTITCRASESVDSFGATFMHWYQQKPGKAPKLLIYLASWLGSGVPSRFSGSGSGTDFTLTISSLQPEDFATYYCVQNNEDPYTFGQGTKLEIK
notes: Combinatorial mutant Fab of HAPC-14; Printed CDRs are the same as those of R2-32E6; also called combinatorial mutant No. 1
B16: HAPC-14-R1-1H1-F2 (Fab, V domains shown)
VH: EVQLVESGGGLVQPGGSLRLSCAASGFTFSFYYLNWVRQAPGKGLEWVGDIRLKSNNYEKHYAESVKGRFTISRDDSKSITYLQMNSLRAEDTAVYYCAREGDYFDYWGQGTTVTVSS
VL: DIQLTQSPSSLSASVGDRVTITCRASESVDSFGATFMHWYQQKPGKAPKLLIYLASNLESGVPSRFSGSGSGTDFTLTISSLQPEDFATYYCQQNNEDPYTFGQGTKLEIK
notes: Single-site mutant Fab of HAPC-14 in periplasmic extract
B17: HAPC-14-R1-2H6-C2 (Fab, V domains shown)
VH: EVQLVESGGGLVQPGGSLRLSCAASGFTFSNYYLNWVRQAPGKGLEWVGDIRLKKNNYEKHYAESVKGRFTISRDDSKSITYLQMNSLRAEDTAVYYCAREGDYFDYWGQGTTVTVSS
VL: DIQLTQSPSSLSASVGDRVTITCRASESVDSFGATFMHWYQQKPGKAPKLLIYLASNLESGVPSRFSGSGSGTDFTLTISSLQPEDFATYYCQQNNEDPYTFGQGTKLEIK
notes: Single-site mutant Fab of HAPC-14
B18: HAPC-14-R1-2L4-A1 (Fab, V domains shown)
VH: EVQLVESGGGLVQPGGSLRLSCAASGFTFSNYYLNWVRQAPGKGLEWVGDIRLKSNNYEKHYAESVKGRFTISRDDSKSITYLQMNSLRAEDTAVYYCAREGDYFDYWGQGTTVTVSS
VL: DIQLTQSPSSLSASVGDRVTITCRASESVDSFGATFMHWYQQKPGKAPKLLIYLASLLESGVPSRFSGSGSGTDFTLTISSLQPEDFATYYCQQNNEDPYTFGQGTKLEIK
notes: Single-site mutant Fab of HAPC-14; inferred from the clone name (2L4, same site as N57R/W)
B19: HAPC-14-R1-1L7-B9 (Fab, V domains shown)
VH: EVQLVESGGGLVQPGGSLRLSCAASGFTFSNYYLNWVRQAPGKGLEWVGDIRLKSNNYEKHYAESVKGRFTISRDDSKSITYLQMNSLRAEDTAVYYCAREGDYFDYWGQGTTVTVSS
VL: DIQLTQSPSSLSASVGDRVTITCRASESVASFGATFMHWYQQKPGKAPKLLIYLASNLESGVPSRFSGSGSGTDFTLTISSLQPEDFATYYCQQNNEDPYTFGQGTKLEIK
notes: Single-site mutant Fab of HAPC-14; inferred from the clone name (1L7 = VL CDR1, 7th residue, the only D of that CDR)

In the first assay the target is T1, human activated protein C (human, UniProt P04070 43-197; P04070 212-461).
T1 construct: In the plasma assays aPC is generated in human plasma with Protac; also called aPC; haPC
The assay is described as follows: KD ELISA ranking, direct antigen coating ELISA of Fab. (In general: ELISA stands for enzyme-linked immunosorbent assay.)
B1 registered a Bmax of 0.617. With B2, the Bmax came out at 1.09. In the case of B3, the Bmax came out at 1.24. B4 came in with a Bmax of 1.25. As for B5, the Bmax came out at 1.41. Still for that read-out and setting: the same measure for B6: 0.715; for B7: 1.26. Regarding B8, the Bmax stood at 1.21. B9 had a Bmax of 0.96. The same measure, in the same setting: the same measure for B10: 1.04.

As for B11, the Bmax is 1.21. Consider B12, for which the Bmax was found to be 0.717. For the molecule B13, the Bmax was determined as 1.01.

Take B14: the Bmax is 1.07. B15 gave a Bmax of 1.37.

In another assay the target is T1, human activated protein C. Nature of the assay: direct antigen coating ELISA (KD ELISA) of Fab periplasmic extract, anti-c-myc HRP. The procedure:
Each well of 96-well plates was coated with an anti-Fab antibody in a coating buffer PBS with pH 7.4 at 4° C. The next day, the plates were blocked with casein in PBS with pH 7.4 at 25° C. for 1 hour. Then, Fab PE was added to the plates, and incubated at 25° C. for 1 hour. After the plates were washed, biotinylated antigen was added to the wells and incubated at 25° C. for 1 hour. Then, the biotinylated antigen was incubated with an SA-horseradish peroxidase (HRP) conjugate at 25° C. for 1 hour. HRP activity was detected with a tetramethylbenzidine (TMB) substrate, and the reaction was quenched with 2M HCl. The plates were read at 450 nm. […] The binding-improved mutants with unique sequences of HAPC-14 were ranked by direct antigen coating ELISA.
Each well of 96-well plates was coated with hPro1. biotin in 1×PBS buffer with pH 7.4, and incubation was carried out overnight at 4° C. The next day, the plates were blocked with casein in 1×PBS buffer with pH 7.4 at 25° C. for 1 hour. Fab PE of each mutant diluted according to one concentration was added to the plates and incubated at 25° C. for 1 hour. Then the Fab PE was incubated with goat anti-c-myc HRP conjugated at 25° C. for 1 hour. HRP activity was detected with a tetramethylbenzidine (TMB) substrate, and the reaction was quenched with 2M HCl. OD values of each plate were read at 450 nm.
B16: the Bmax was 0.278. On to B17, for which the Bmax amounted to 0.262. In turn, B18 had a Bmax of 0.244. For the molecule B19, the Bmax amounted to 0.151.
